Where a chain is given by its changes, count along the chain named. Blank lines part the entries; values can stand above or below the binder they belong to.
Legend:
[1] = biological target: T1, recombinant human IL-18Rα Fc chimera (R&D Systems, Cat. No. 816-LR) (human, UniProt Q13478 19-329); experiment: SPR (BIACORE), 37°C, antibody captured, hIL-18Rα hFc chimera in solution
T1 construct: Bought protein; also called hIL-18Rα (hFc-chimera R&D-Systems 816-LR); recombinant human IL-18Rα-Fc fusion protein; not shown: human Fc of the commercial chimera
T1 sequence: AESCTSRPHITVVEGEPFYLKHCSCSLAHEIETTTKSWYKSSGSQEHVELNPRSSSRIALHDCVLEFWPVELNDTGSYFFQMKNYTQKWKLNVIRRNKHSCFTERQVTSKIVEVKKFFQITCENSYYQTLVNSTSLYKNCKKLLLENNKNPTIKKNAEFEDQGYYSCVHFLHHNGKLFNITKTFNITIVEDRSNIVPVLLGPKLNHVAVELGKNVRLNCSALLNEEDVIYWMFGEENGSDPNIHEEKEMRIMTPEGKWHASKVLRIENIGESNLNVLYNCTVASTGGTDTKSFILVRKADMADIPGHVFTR
Procedure: (§1) Coupling: amine coupling Buffer: 1×PBS (10×PBS, Ambion cat. AM9625), pH 7.4, 37° C. […] Association was measured by a hIL-18Rα-injection of 1.5 minutes at 37° C.; dissociation was measured by washing the chip surface with buffer for 10 minutes at 37° C. For calculation of apparent KD and other kinetic parameters the Langmuir 1:1 model was used.

[2] = biological target: T1, recombinant human IL-18Rα Fc chimera …; experiment: SPR (BIACORE), 37°C, antibody captured, hIL-18Rα hFc chimera in solution; apparent KD, Langmuir 1:1
Procedure: as §1

[3] = biological target: T2, cynomolgus IL-18Rα/IL-18Rβ on transfected cells (cynomolgus, UniProt A0A2K5V3J9 19-540; A0A7N9D6S0 20-598); experiment: cell ELISA on CHO-K1 cells expressing cynomolgus IL-18Rα+β
T2 construct: whole, on cells; also called CHO CyIL-18Rα + β
T2 sequence 1: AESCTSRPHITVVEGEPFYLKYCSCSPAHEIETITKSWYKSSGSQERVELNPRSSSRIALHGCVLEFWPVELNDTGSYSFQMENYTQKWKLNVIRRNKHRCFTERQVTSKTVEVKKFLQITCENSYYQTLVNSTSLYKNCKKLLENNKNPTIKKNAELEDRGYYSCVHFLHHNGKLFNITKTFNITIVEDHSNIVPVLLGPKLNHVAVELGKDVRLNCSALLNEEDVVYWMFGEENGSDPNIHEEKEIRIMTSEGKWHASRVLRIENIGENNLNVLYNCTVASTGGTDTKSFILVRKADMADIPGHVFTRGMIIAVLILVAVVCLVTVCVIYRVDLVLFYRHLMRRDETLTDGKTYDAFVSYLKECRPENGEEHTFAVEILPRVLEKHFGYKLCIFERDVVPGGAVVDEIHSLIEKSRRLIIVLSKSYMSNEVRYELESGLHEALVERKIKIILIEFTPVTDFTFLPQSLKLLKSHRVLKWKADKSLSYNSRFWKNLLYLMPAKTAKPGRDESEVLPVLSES
T2 sequence 2: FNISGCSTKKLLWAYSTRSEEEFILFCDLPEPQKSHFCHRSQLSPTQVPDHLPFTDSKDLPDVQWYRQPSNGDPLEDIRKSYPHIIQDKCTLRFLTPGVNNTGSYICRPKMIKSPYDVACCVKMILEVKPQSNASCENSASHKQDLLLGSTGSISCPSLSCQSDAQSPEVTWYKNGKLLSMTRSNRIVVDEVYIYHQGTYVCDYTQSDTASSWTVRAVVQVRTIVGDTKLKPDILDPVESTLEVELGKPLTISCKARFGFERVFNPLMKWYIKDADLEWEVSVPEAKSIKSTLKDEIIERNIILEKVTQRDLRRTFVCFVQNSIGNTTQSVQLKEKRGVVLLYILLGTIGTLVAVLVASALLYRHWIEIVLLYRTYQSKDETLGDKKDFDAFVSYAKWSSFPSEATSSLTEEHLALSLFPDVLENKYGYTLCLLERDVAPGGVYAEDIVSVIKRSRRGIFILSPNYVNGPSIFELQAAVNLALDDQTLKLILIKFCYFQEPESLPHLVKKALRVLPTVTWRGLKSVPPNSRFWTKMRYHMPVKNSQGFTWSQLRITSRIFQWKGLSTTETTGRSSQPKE
Procedure: The recombinant cell lines CHO-K1 expressing cynomolgus IL-18Rα or cynomolgus IL-18Rα+β were stained with the Mab_IL-18R antibodies in a cell ELISA. Controls are CHO-K1 untransfected cells. Cells were grown in F-12 medium (GIBCO) with Glutamax-1 (GIBCO Cat. No. 31331-028)+10% FCS (PAN Cat. No. 2802-P920707). For cultivation of the recominant cell lines 250 μg/ml G418 (Geneticin, GIBCO, Cat. No. 10131-019) was added. As control antibody anti hIL-18Ralpha Antibody Mab840 (Mouse monoclonal IgG1 from R&D Systems, Cat. MAB 840) and as detection antibody goat anti-mouse IgG (H+L)-HRP conjugate (BioRad) was added. For running the assay, on day 1 2×10⁴ CHO_CynoIL-18Rα, CHO_CynoIL-18Rα+β or untransfected CHO cells in 50 μl F-12/well were seeded in a 96-well plate and incubated overnight at 37° C. On day 2, 50 μl supernatant or (2×) purified antibody diluted in medium or 50 μl Hybridoma supernatant were added and incubated for 2 h at 4° C. Supernatant was aspirated and 100 μl/well Glutaraldehyde fixing solution (25% stock solution Grade EM; final concentration=0.05% in PBS) was added and incubated for 10 minutes at room temperature. For washing 2 times 200 μl PBS/well/wash was added and removed. 50 μl of ELISA detection-antibody diluted in ELISA blocking reagent (ELISA blocking stock reagent diluted 1:10 in PBS) was added. […] The plates were measured at 450 nm-620 nm using an ELISA reader (TECAN).

koff [1]: 0.0002 s⁻¹ | kon [1]: 8.2e+06 M⁻¹ s⁻¹ | t1/2 [1]: 0.967 h | Kd [2]: 27 pM | EC50 [3]: 0.015 µg/mL
B1: Mab 1G12 (antibody, V domains shown)
VH: QVQLQQPGAELVKPGASVRMSCKTSDYTFTSNWMHWVKQRPGQGLEWIGTIDPSDSYTYYNQKFKGRATLTVDTSSSTAYMQLSSLTSEDSAVYYCTTSGDYDADRYFDVWGAGTTVTVSS
VL: DIVLTQSPASLGVSLGQRATISCRASKSVSTSGDSYMHWYQQKPGQSPKLLIYLASNLESGVPARFSGSGSGTDFTLNIHPVEEEDAATYYCQQSRELPLSFGAGTKLELK
notes: Monoclonal antibody from immunized NMRI mice; detected with anti-mouse IgG1-PE / anti-mouse IgG; also called F20.1G12; monoclonal antibody 1G12

koff [1]: 0.00019 s⁻¹ | kon [1]: 7e+06 M⁻¹ s⁻¹ | t1/2 [1]: 1.03 h | Kd [2]: 27 pM
B2: Mab 2D11 (antibody, V domains shown)
VH: B1 VH with R19K, T24A, R67K, Q82H
VL: B1 VL
notes: Monoclonal antibody from immunized NMRI mice; detected with anti-mouse IgG1-PE / anti-mouse IgG; also called F20.2D11
